Results from patent US20250051458A1, “Methods for Treating Neurodegeneration Targeting IGF1/IGF1R” (The Schepens Eye Research Institute, Inc., priority 2021, published 2025).

How the values were obtained:
[1] = test system: retinal microglia; assay: Bulk RNA-seq gene profiling of isolated retinal microglial cultures, with or without LPS; type: cell-based, mouse
Procedure: We performed RNA-seq using four Igfbpl1−/− mice retina and four WT mice retina. The raw data was quality controlled and aligned on Mus musculus (mouse) reference genome (GRCm38) with STAR v2.5.0a (PMID: 23104886), FeatureCount (v0.6.1) (PMID: 24227677) was used to count the number of read mapped to each gene. Transcripts Per Million (TPM) was calculated for each gene based on the length of the gene and reads mapped to that gene. Differential expression analysis between Igfbpl1^−/− and WT mice was performed using the DESeq2 R package (v1.22.2) (PMID: 25516281). gene set over representation analysis for the differentially expressed genes was performed with the same above described method. We also downloaded lists of genes with function related to “Microglia”, “Astroglia”, “neuron”, and “photoreceptor” from genecard (www.genecards.org) with relevance score>5, and determined the percentage of and calculated the proportion of differentially expressed genes in each of those gene lists. […]
To investigate if IGFBPL1 directly mediates microglial function, we studied gene profiling changes in isolated microglial cultures treated by IGFBPL1. Retinal microglia were purified from mice expressing green fluorescence protein (GFP) driven under a microglial specific promoter Cx3cr1 (Cx3cr1-Gfp) using fluorescence-activated cell sorting (FACS)^12. […]

[2] = test system: DBA/2J mice; assay: DBA/2J chronic glaucoma mouse model, monthly intravitreal administration; type: in vivo; conditions: 10 m-old DBA/2J mice
Procedure: Adult (10-12 weeks old) male and female C57BL/6J (B6) (The Jackson Laboratory, 000664), Cx3cr1^GFP (The Jackson Laboratory, 005582), DBA/2J mice (The Jackson Laboratory, 000671) Igf1r^(lax) inducible knockout mice (The Jackson Laboratory, 012251) as well as Cx3cr1^tm2.1(cre/ERT2) mice were obtained from the Jackson Laboratory. Igf1r^(lax) mice were crossed with Cx3cr1^tm2.1(cre/ERT2) mice to generated Igf-1r specific knock out on microglia after 3 consecutive days injection of 100 mg/kg tamoxifen to mice. IGFBPL1 deficiency mice at a C57BL/6J genetic background (Knockout Mouse Project Repository, University of California at Davis) were used in following experiments. Mice of both genders were randomized into control and experimental groups. All experimental procedures and use of animals were approved and monitored by the Institute's Animal Care Committee and conform to the standards of the National Institute of Health and the Association for Research in Vision and Ophthalmology.
Adult mice were anesthetized by i.p. injection of ketamine (120 mg/kg)/xylazine (20 mg/kg) mixture using 25 G needle. […] Mice will be placed on a warm pad and monitored every 15 minutes until awake and fully sternal.
The adult mice were dark adapted in a dark adaptation chamber overnight before conducting ERG. […] The pSTR was measured from the baseline to the peak of the positive deflection. […]

B1: IGFBPL1: insulin-like growth factor binding protein like protein 1; recombinant protein (R&D system, 4130-BL) (protein)
chain: LGLRDAGRRHPECSPCQQDRCPAPSPCPAPWISARDECGCCARCLGAEGASCGGPVGSRCGPGLVCASRASGTAPEGTGLCVCAQRGAVCGSDGRSYSSICALRLRARHAPRAHHGHLHKARDGPCEFAPVVLMPPRDIHNVTGTQVFLSCEVKAVPTPVITWKKVKHSPEGTEGLEELPGDHVNIAVQVRGGPSDHETTSWILINPLRKEDEGVYHCHAANAIGEAQSHGTVTVLDLNRYKSLYSSVPGDLL
With B1 the “Reversal of LPS-induced microglial gene profile (bulk RNA-seq)” value ([1]; IGFBPL1 added 6 hr after LPS stimulation) was “completely reverted LPS-induced microglial gene profile to the control level”, the “Microglial gene profile versus vehicle controls (bulk RNA-seq)” value ([1]; IGFBPL1 alone, no LPS) was “no different between cultures treated with IGFBPL1 alone and vehicle controls” and the “Survived axon in optic nerve” value ([2]; versus vehicle-treated group) was “significantly preserved”. For the same molecule, the “RGC density and pSTR amplitude” value ([2]; after four monthly doses) was “effectively protect RGCs and functions”.
